In patent US9187762B2, “Compositions and methods comprising sequences having hydroxyphenylpyruvate dioxygenase (HPPD) activity” (PIONEER HI-BRED INTERNATIONAL, INC., priority 2010, dated 2015):

Tests used:
T0 soybean plants = assay: Herbicide spray test of transgenic T0 HPPD soy plants using mesotrione, visual injury; type: in vivo; details: mesotrione 210 g ai/ha, eight days after treatment
Description: (1987) Nature 327:70-73, U.S. Pat. No. 4,945,050) using a DuPont Biolistic PDS1000/He instrument. A selectable marker gene used to facilitate soybean transformation was a chimeric gene composed of the 35S promoter from Cauliflower Mosaic Virus (Odell et al. (1985) Nature 313:810-812), the hygromycin phosphotransferase gene from plasmid pJR225 (from E coli; Gritz et al. (1983) Gene 25:179-188) and the 3' region of the nopaline synthase gene from the T-DNA of the Ti plasmid of Agrobacterium tumefaciens. Another selectable marker used to facilitate soybean transformation was a chimeric gene composed of the S-adenosylmethionine synthase (SAMS) promoter (U.S. Pat. […] Pat. […] The selection agent used during the transformation process was either hygromycin or chlorsulfuron depending on the marker gene present. […] Pat. […] (1995) Genetics 139 (2), 921-939; Genbank L05363). In specific constructs, the SCP1 promoter of U.S. Pat. No. 6,072,050 was employed. Bombardments were carried out with linear DNA fragments purified away from any bacterial vector DNA. […] Bombarded soybean embryogenic suspension tissue was cultured for one week in the absence of selection agent, then placed in liquid selection medium for 6 weeks. […] Putative transgenic suspension culture tissue was maintained in selection medium for 3 weeks to obtain enough tissue for plant regeneration. Suspension tissue was matured for 4 weeks using standard procedures; matured somatic embryos were desiccated for 4-7 days and then placed on germination induction medium for 2-4 weeks. Germinated plantlets were transferred to soil in cell pack trays for 3 weeks for acclimatization. Plantlets were potted to 10-inch pots in the greenhouse for evaluation of herbicide resistance. […] Some T0 plants were not sprayed with herbicide and were all advanced to the next generation for testing.

soybean HPPD = assay: HPPD activity, coupled assay with HGD; substrate saturation kinetics (KM, kcat); type: biochemical; details: substrate HPP; E. coli-expressed enzyme
Description: (§1) HPPD catalyzes the conversion of 4-hydroxyphenylpyruvate (HPP) to homogentisate. See, FIG. 1. […] However, the product of the ensuing reaction in tyrosine metabolism, maleylacetoacetate, absorbs strongly at 320 nm. Furthermore, the enzyme catalyzing that reaction is also a dioxygenase having similar mechanism and buffer requirements as HPPD, making homogentisate dioxygenase (HGD) an ideal partner in a coupled assay, as shown.
(§2) The HDG gene from Pseudomonas aeruginosa (Amaya (2004) Arch Biochem Biophys 421, 135-142) was cloned into pVER7062 and electroporated into E. coli strain BL21(DE3). The enzyme was produced by methods similar to those described for HPPD. The purified enzyme has a KM for homogentisate of 23 uM and a kcat of 100/sec, properties highly suited for instantly converting the homogentisate produced by HPPD to maleylacetoacetate.
(§3) HPPD activity was measured by placing an aliquot (e.g., 6 ul) of the substrate HPP at 50-fold the desired final concentration into the wells of a low UV-absorbing assay plate. Reactions were started by adding a mixture (e.g., 294 ul) containing 25 mM Hepes, pH 7, 2 mM ascorbate, 10 uM FeSO4, 1 to 100 uM HPP, 50 nM HGD and 5 to 240 nM HPPD. Absorbance at 320 nm was monitored continuously in a plate-reading spectrophotometer (Spectramax, Molecular Devices).
(§4) The catalytic performance of wild-type HPPD and variants generated by shuffling was assessed by determining the substrate saturation parameters. The Michaelis-Menten kinetics protocol of the Spectramax software was customized for HPP concentrations ranging from 3.33 uM to 100 uM, or up to 1 mM if required. Reaction rates were measured as described above for each concentration of HPP. The software returns values of KM and Vmax using the Lineweaver-Burke transformation of the Michaelis-Menten equation.
The amino acid substitutions identified during the shuffling and mutagenesis of the maize HPPD gene can be made at analogous positions in other HPPD proteins to improve their insensitivity toward HPPD-inhibiting herbicides. The sequences of native and improved maize HPPD were aligned with those of sorghum (Genbank accession number XP002453359) and soybean (Genbank accession number ABQ96868), and the motif substitutions were designed accordingly, as shown in FIG. 14. The genes designed for improvement were synthesized commercially, inserted into vector pVER7062 and expressed, purified and evaluated as in Example 1.

maize HPPD [1] = assay: HPPD activity, coupled assay with HGD at 320 nm; substrate saturation kinetics (KM, kcat); type: biochemical
Description: as §1, §2, §3, §4

maize HPPD [2] = assay: ON rate ratio, OFF rate ratio and insensitivity parameter with herbicidal HPPD inhibitors; type: biochemical; details: for ON rate ratio: mesotrione 4 uM, 100 uM HPP, 70 to 90 second interval
Description: To devise a parameter for detecting changes in inhibitor binding affinity, KD, one can utilize the relationship between KD and the rates of binding and release of inhibitor to and from the enzyme. [formula] Higher KD (reduced affinity or increased insensitivity) can be attained with a numerically smaller ON rate, a larger OFF rate or both. […] The ratio of the reaction rate with inhibitor to that without inhibitor during the 70 to 90 second interval of the reaction was termed the “ON rate ratio”. […] Incubations with the same concentrations of enzyme but no mesotrione were done in parallel. After 1 hr at room temperature, 5 to 10 ul of the enzyme-inhibitor complex was dispensed into the wells of the assay plate. Reactions were started with the addition of 290 to 295 ul of 25 mM Hepes, pH 7, 2 mM ascorbate, 10 uM FeSO4, 100 uM HPP and 50 nM HGD. The reactions were monitored at 320 nm for 12 min. Reaction velocity accelerates as inhibitor is released from the enzyme until a steady state is reached, during which the reaction velocity is constant. The ratio of the steady state rate in mixtures containing mesotrione (or other herbicidal inhibitor) to the initial velocity of mixtures lacking inhibitor is termed the “OFF rate ratio”. Another parameter to record is the time span required for the reactions with inhibitor to reach the steady state. […] It is not certain that the steady state attained in the OFF rate reactions actually represents an equilibrium where OFF rates are now equal to ON rates. Because substrate and inhibitors bind in the same site, the high concentration of substrate present may competitively trap the inhibitor and prevent it from binding again. To be sure that improvement in ON rates is being taken into account, the ON and OFF rate ratios were multiplied together and the product is termed the “insensitivity parameter”. […] The variants in Table 9 were grouped according to the parameter in which they are improved compared to wild type. The sequence positions are numbered according to the wild-type maize amino acid sequence of SEQ ID 1. Some substitutions are effective in multiple contexts, as discussed in the next section.

[3] = Elite soybean control, DNA none
[4] = substrate HPP, E. coli-expressed enzyme

Which results are given for `CS(=O)(=O)c1ccc(C(=O)C2C(=O)CCCC2=O)c([N+](=O)[O-])c1` [mesotrione]?
Mean Soybean Response (% Injury) (T0 soybean plants; [3]): 88%; Soybean % Injury Response Range (T0 soybean plants; [3]): 80-95%; Mean Soybean Response (% Injury) (T0 soybean plants; Jack soybean control, DNA none): 87%; Soybean % Injury Response Range (T0 soybean plants; Jack soybean control, DNA none): 75-95%

B1: Soy wt: wild-type soybean HPPD protein, SEQ ID NO: 2, expressed in E. coli (protein)
chain: MAIPMCNEIQAQAQAQAQAQPGFKLVGFKNFVRTNPKSDRFQVNRFHHIEFWCTDATNASRRFSWGLGMPIVAKSDLSTGNQIHASYLLRSGDLSFLFSAPYSPSLSAGSSAASSASIPSFDAATCLAFAAKHGFGVRAIALEVADAEAAFSASVAKGAEPASPPVLVDDRTGFAEVRLYGDVVLRYVSYKDAAPQAPHADPSRWFLPGFEAAASSSSFPELDYGIRRLDHAVGNVPELAPAVRYLKGFSGFHEFAEFTAEDVGTSESGLNSVVLANNSETVLLPLNEPVYGTKRKSQIETYLEHNEGAGVQHLALVTHDIFTTLREMRKRSFLGGFEFMPSPPPTYYANLHNRAADVLTVDQIKQCEELGILVDRDDQGTLLQIFTKPVGDRPTIFIEIIQRIGCMVEDEEGKVYQKGACGGFGKGNFSELFKSIEEYEKTLEAKRTA
modifications: Glycine max
How did the Km (soybean HPPD) turn out when B1 was run?
Its Km is 3 µM.

What about the kcat (soybean HPPD) of the same molecule?
Its kcat is 1.67 s⁻¹.

B2: Maize wt: synthetic maize wild-type HPPD protein, SEQ ID NO: 1, expressed in E. coli (protein)
chain: MGPTPTAAAAGAAVAAASAAEQAAFRLVGHRNFVRFNPRSDRFHTLAFHHVELWCADAASAAGRFSFGLGAPLAARSDLSTGNSAHASLLLRSGSLSFLFTAPYAHGADAATAALPSFSAAAARRFAADHGLAVRAVALRVADAEDAFRASVAAGARPAFGPVDLGRGFRLAEVELYGDVVLRYVSYPDGAAGEPFLPGFEGVASPGAADYGLSRFDHIVGNVPELAPAAAYFAGFTGFHEFAEFTTEDVGTAESGLNSMVLANNSENVLLPLNEPVHGTKRRSQIQTFLDHHGGPGVQHMALASDDVLRTLREMQARSAMGGFEFMAPPTSDYYDGVRRRAGDVLTEAQIKECQELGVLVDRDDQGVLLQIFTKPVGDRPTLFLEIIQRIGCMEKDEKGQEYQKGGCGGFGKGNFSQLFKSIEDYEKSLEAKQAAAAAAAQGS
modifications: Zea mays
What does the source list for B2?
kcat (maize HPPD [1]; N-terminal truncated variants of maize wild-type HPPD, single measurement): 2.77 s⁻¹; Km (maize HPPD [1]; [4]): 5.2 µM; kcat (maize HPPD [1]; [4]): 3.45 s⁻¹; kcat (maize HPPD [1]; substrate HPP, E. coli-expressed enzyme, listed as wild type): about 220 min^−1; tolerance to mesotrione in T0 soybean plants (T0 soybean plants): moderate tolerance; Insensitivity parameter (ON rate ratio × OFF rate ratio) relative to that of maize wild-type HPPD (maize HPPD [2]; Isoxaflutole (diketonitrile)): 1.0; Insensitivity parameter (ON rate ratio × OFF rate ratio) relative to that of maize wild-type HPPD (maize HPPD [2]; Sulcotrione): 1.0; Insensitivity parameter (ON rate ratio × OFF rate ratio) relative to that of maize wild-type HPPD (maize HPPD [2]; Topramezone): 1.0; Triple product (ON rate ratio × OFF rate ratio × kcat), relative to that of maize wild-type HPPD (maize HPPD [2]; inhibitor Isoxaflutole (diketonitrile)): 1.0; Triple product (ON rate ratio × OFF rate ratio × kcat), relative to that of maize wild-type HPPD (maize HPPD [2]; inhibitor Mesotrione): 1.0; Triple product (ON rate ratio × OFF rate ratio × kcat), relative to that of maize wild-type HPPD (maize HPPD [2]; inhibitor Sulcotrione): 1.0; Triple product (ON rate ratio × OFF rate ratio × kcat), relative to that of maize wild-type HPPD (maize HPPD [2]; inhibitor Tembotrione): 1.0; Triple product (ON rate ratio × OFF rate ratio × kcat), relative to that of maize wild-type HPPD (maize HPPD [2]; inhibitor Topramezone): 1.0; Insensitivity parameter (ON rate ratio × OFF rate ratio) relative to that of maize wild-type HPPD (maize HPPD [2]; mesotrione): 1.0; ON × OFF × kcat (maize HPPD [2]; mesotrione): 9.88; Vmax MT (maximum reaction rate attained with mesotrione in the determination of OFF rate ratio) (maize HPPD [2]; mesotrione): 52 min⁻¹; insensitivity parameter (ON rate ratio × OFF rate ratio) (maize HPPD [2]; mesotrione): 0.049; ON rate ratio (maize HPPD [2]): 0.2; ON rate ratio (maize HPPD [2]; listed as WT): 0.19; OFF rate ratio (maize HPPD [2]; mesotrione, pre-formed enzyme-inhibitor complex): 0.26; time span to attain steady state in OFF rate reaction (maize HPPD [2]; release of mesotrione from pre-formed complex, enzyme 240 nM): 280 s; Insensitivity parameter (ON rate ratio × OFF rate ratio) relative to that of maize wild-type HPPD (maize HPPD [2]; tembotrione): 1.0

B3: D0223961: shuffled maize HPPD variant used for chloroplast transformation (protein)
chain: MGPTPTATAAGAAVAAASAAEQAAFRLVGHRNFVRFNPRSDRFHTLAFHHVELWCADAASAAGRFSFALGAPLAARSDLSTGNSAHASLLLRSGSLSFLFTAPYAHGADAATAALPSFSAAAARRFAADHGLAVRAVALRVADAEDAFRASVAAGARPAFGPVDLGRGFRLAEVELYGDVVLRYVSYPDGAAGEPFLPGFEGVASPGAADYGLSRFDHIVGNVPELAPAAAYFAGFTGFHEFAEFTTEDVGTAESGLNSMALANNSENVLLPLNEPVHGTKRRSQIQTFLDHHGGPGVQHIALASDDVLRTLREMQARSAMGGFEFLPPPPSDYYDGVRRCAGDVLTEAQINECQELGVMVDRDDQGVLLQIFTKPVGDRPTFFLEIIQRIGCMEKDEKGQEYQKGGCGGFGKKNFGQLFKSIEDYEKSLEAKQAAAAATAQGS
modifications: HPPD variant
notes: shuffled maize HPPD variant used for chloroplast transformation
What does the source list for B3?
kcat (maize HPPD [1]; variants truncated to ala20 vs full length): 1.77 ± 0.207 s⁻¹; Soybean % Injury Response Range (T0 soybean plants; T0 soybean plants expressing the HPPD gene variant (per DNA construct)): 0-80%; Mean Soybean Response (% Injury) (T0 soybean plants; T0 soybean plants expressing the HPPD gene variant (per DNA construct), 0=no effect, 100=dead plant): 26%
